Experiments:
Assay in all cases: cell-based or functional assay
[1] = biological target: HIV-1 Env of pseudovirus T250-4 (HIV-1)
[2] = biological target: HIV-1 Env of pseudovirus 263-8 (HIV-1)
[3] = biological target: HIV-1 Env of pseudovirus 3817.v2.c59 (HIV-1)
[4] = biological target: HIV-1 Env of pseudovirus ZM233M.PB6 (HIV-1)
[5] = biological target: HIV-1 Env of pseudovirus BJOX009000.02.4 (HIV-1)
[6] = biological target: HIV-1 Env of pseudovirus 1012_11_TC21_3257 (HIV-1)
[7] = biological target: HIV-1 Env of pseudovirus 6811.v7.c18 (HIV-1)
[8] = biological target: HIV-1 Env of pseudovirus TRJO4551.58 (HIV-1)
[9] = biological target: HIV-1 Env of pseudovirus HIV-0013095-2.11 (HIV-1)
[10] = biological target: HIV-1 Env of pseudovirus 235-47 (HIV-1)
[11] = biological target: HIV-1 Env of pseudovirus 6041.v3.c23 (HIV-1)
[12] = biological target: HIV-1 Env of pseudovirus 9004SS_A3_4 (HIV-1)
[13] = biological target: HIV-1 Env of pseudovirus Ce1086_B2 (HIV-1)
[14] = biological target: HIV-1 Env of pseudovirus CNE19 (HIV-1)
[15] = biological target: HIV-1 Env of pseudovirus ZM197M.PB7 (HIV-1)
[16] = biological target: HIV-1 Env of pseudovirus 1056_10_TA11_1826 (HIV-1)
[17] = biological target: HIV-1 Env of pseudovirus 1006_11_C3_1601 (HIV-1)
[18] = biological target: HIV-1 Env of pseudovirus 211-9 (HIV-1)
[19] = biological target: HIV-1 Env of pseudovirus CNE53 (HIV-1)
[20] = biological target: HIV-1 Env of pseudovirus CNE8 (HIV-1)
[21] = biological target: HIV-1 Env of pseudovirus Q23.17 (HIV-1)
[22] = biological target: HIV-1 Env of pseudovirus 928-28 (HIV-1)
[23] = biological target: HIV-1 Env of pseudovirus 3301.v1.c24 (HIV-1)
[24] = biological target: HIV-1 Env of pseudovirus 620345.c01 (HIV-1)
[25] = biological target: HIV-1 Env of pseudovirus PVO.4 (HIV-1)
[26] = biological target: HIV-1 Env of pseudovirus QH0692.42 (HIV-1)
[27] = biological target: HIV-1 Env of pseudovirus ZM53M.PB12 (HIV-1)
[28] = biological target: HIV-1 Env of pseudovirus T278-50 (HIV-1)
[29] = biological target: HIV-1 Env of pseudovirus 249M B10 (HIV-1)
[30] = biological target: HIV-1 Env of pseudovirus SC05_8C11_2344 (HIV-1)
[31] = biological target: HIV-1 Env of pseudovirus HIV-16055-2.3 (HIV-1)
[32] = biological target: HIV-1 Env of pseudovirus 3103.v3.c10 (HIV-1)
[33] = biological target: HIV-1 Env of pseudovirus ZM135M.PL10a (HIV-1)
[34] = biological target: HIV-1 Env of pseudovirus R1166.c01 (HIV-1)
[35] = biological target: HIV-1 Env of pseudovirus 191084 B7-19 (HIV-1)

PGT121 (antibody)
IC50 [1]: < 0.001 µg/mL | IC80 [1]: 0.005 µg/mL | IC50 [2]: 0.648 µg/mL | IC80 [2]: 3.96 µg/mL | IC50 [3]: 18.9 µg/mL | IC80 [3]: > 50 µg/mL | IC50 [4]: 3.69 µg/mL | IC50 [5]: 2.86 µg/mL | IC80 [5]: 31.7 µg/mL | IC50 [6]: 0.003 µg/mL | IC80 [6]: 0.017 µg/mL | IC50 [7]: < 0.001 µg/mL | IC80 [7]: 0.001 µg/mL | IC50 [8]: 1.31 µg/mL | IC80 [8]: 37.9 µg/mL | IC50 [9]: > 50 µg/mL | IC80 [9]: > 50 µg/mL | IC50 [10]: 0.137 µg/mL | IC80 [10]: 0.727 µg/mL | IC50 [11]: > 50 µg/mL | IC80 [11]: > 50 µg/mL | IC50 [12]: < 0.001 µg/mL | IC80 [12]: 0.003 µg/mL | IC50 [13]: < 0.001 µg/mL | IC80 [13]: < 0.001 µg/mL | IC50 [14]: 0.008 µg/mL | IC80 [14]: 0.105 µg/mL | IC50 [15]: > 50 µg/mL | IC80 [15]: > 50 µg/mL | IC50 [16]: 0.004 µg/mL | IC80 [16]: 0.081 µg/mL | IC50 [17]: 0.002 µg/mL | IC80 [17]: 0.007 µg/mL | IC50 [18]: 0.852 µg/mL | IC80 [18]: 4.2 µg/mL | IC50 [19]: 0.007 µg/mL | IC80 [19]: 0.024 µg/mL | IC50 [20]: > 50 µg/mL | IC80 [20]: > 50 µg/mL | IC50 [21]: < 0.001 µg/mL | IC80 [21]: 0.005 µg/mL | IC50 [22]: 44.2 µg/mL | IC80 [22]: > 50 µg/mL | IC50 [23]: 0.008 µg/mL | IC80 [23]: 0.019 µg/mL | IC50 [24]: > 50 µg/mL | IC80 [24]: > 50 µg/mL | IC50 [25]: 0.098 µg/mL | IC80 [25]: 0.343 µg/mL | IC50 [26]: 0.302 µg/mL | IC80 [26]: 2.31 µg/mL | IC50 [27]: < 0.001 µg/mL | IC80 [27]: 0.004 µg/mL | IC50 [28]: > 50 µg/mL | IC80 [28]: > 50 µg/mL | IC50 [29]: > 50 µg/mL | IC80 [29]: > 50 µg/mL | IC50 [30]: 0.019 µg/mL | IC80 [30]: 0.071 µg/mL | IC50 [31]: 0.153 µg/mL | IC80 [31]: 4.8 µg/mL | IC50 [32]: 0.009 µg/mL | IC80 [32]: 0.028 µg/mL | IC50 [33]: 0.716 µg/mL | IC80 [33]: 5.25 µg/mL | IC50 [34]: > 50 µg/mL | IC80 [34]: > 50 µg/mL

PGT128 (antibody)
IC50 [1]: < 0.001 µg/mL | IC80 [1]: 0.007 µg/mL | IC50 [2]: 0.342 µg/mL | IC80 [2]: 3.3 µg/mL | IC50, titer in TZM.bl cells [3]: 0.003 µg/mL | IC80, titer in TZM.bl cells [3]: 0.023 µg/mL | IC50 [4]: > 50 µg/mL | IC80 [4]: > 50 µg/mL | IC50, titer in TZM.bl cells [5]: < 0.001 µg/mL | IC80, titer in TZM.bl cells [5]: 0.005 µg/mL | IC50 [6]: 0.011 µg/mL | IC80 [6]: 0.033 µg/mL | IC50, titer in TZM.bl cells [7]: 0.003 µg/mL | IC80, titer in TZM.bl cells [7]: 0.05 µg/mL | IC50 [8]: 0.018 µg/mL | IC80 [8]: 0.041 µg/mL | IC50 [9]: > 50 µg/mL | IC80 [9]: > 50 µg/mL | IC50, titer in TZM.bl cells [10]: > 50 µg/mL | IC80, titer in TZM.bl cells [10]: > 50 µg/mL | IC50, titer in TZM.bl cells [11]: > 50 µg/mL | IC80, titer in TZM.bl cells [11]: > 50 µg/mL | IC50 [12]: 0.002 µg/mL | IC80 [12]: 0.01 µg/mL | IC50 [13]: > 50 µg/mL | IC80 [13]: > 50 µg/mL | IC50 [14]: > 50 µg/mL | IC80 [14]: > 50 µg/mL | IC50 [15]: > 50 µg/mL | IC80 [15]: > 50 µg/mL | IC50 [16]: < 0.001 µg/mL | IC80 [16]: 0.008 µg/mL | IC50 [17]: 0.011 µg/mL | IC80 [17]: 0.04 µg/mL | IC50, titer in TZM.bl cells [18]: 0.062 µg/mL | IC80, titer in TZM.bl cells [18]: 0.215 µg/mL | IC50 [19]: 0.01 µg/mL | IC80 [19]: 0.049 µg/mL | IC50, titer in TZM.bl cells [20]: 0.019 µg/mL | IC80, titer in TZM.bl cells [20]: 0.052 µg/mL | IC50 [21]: 0.009 µg/mL | IC80 [21]: 0.024 µg/mL | IC50 [22]: > 50 µg/mL | IC80 [22]: > 50 µg/mL | IC50, titer in TZM.bl cells [23]: 0.067 µg/mL | IC80, titer in TZM.bl cells [23]: 0.499 µg/mL | IC50, titer in TZM.bl cells [24]: > 50 µg/mL | IC80, titer in TZM.bl cells [24]: > 50 µg/mL | IC50 [25]: 0.011 µg/mL | IC80 [25]: 0.028 µg/mL | IC50 [35]: 0.022 µg/mL | IC80 [35]: 0.152 µg/mL | IC50 [26]: 0.029 µg/mL | IC80 [26]: 0.081 µg/mL | IC50 [27]: > 50 µg/mL | IC80 [27]: > 50 µg/mL | IC50, titer in TZM.bl cells [28]: 0.031 µg/mL | IC80, titer in TZM.bl cells [28]: 0.089 µg/mL | IC50 [29]: 7.87 µg/mL | IC80 [29]: > 50 µg/mL | IC50 [30]: 0.017 µg/mL | IC80 [30]: 0.041 µg/mL | IC50 [31]: > 50 µg/mL | IC80 [31]: > 50 µg/mL | IC50, titer in TZM.bl cells [32]: 0.014 µg/mL | IC80, titer in TZM.bl cells [32]: 0.033 µg/mL | IC50 [33]: > 50 µg/mL | IC80 [33]: > 50 µg/mL | IC50, titer in TZM.bl cells [34]: > 50 µg/mL | IC80, titer in TZM.bl cells [34]: > 50 µg/mL
